# Test results from PMC3834327, “N ^6-Substituted AMPs Inhibit Mammalian Deoxynucleotide N-Hydrolase DNPH1” (PLoS ONE, 2013).
# Substrate: Nc1nc2c(ncn2[C@H]2C[C@H](O)[C@@H](COP(=O)(O)O)O2)c(=O)[nH]1
# Experiment: purified protein, by the assay type
# Settings: other: substrate of human DNPH1; double reciprocal plots, five concentrations; pH 7.0
protein,measurement,value
human DNPH1 (Homo sapiens) (protein) MAAAMVPGRSESWERGEPGRPALYFCGSIRGGREDRTLYERIVSRLRRFGTVLTEHVAAAELGARGEEAAGGDRLIHEQDLEWLQQADVVVAEVTQPSLGVGYELGRAVAFNKRILCLFRPQSGRVLSAMIRGAADGSRFQVWDYEEGEVEALLDRYFEADPPGQVAASPDPTT,Km,57 ± 12 µM
same,kcat,0.002 s⁻¹
same,kcat/Km,35 M⁻¹ s⁻¹
